Data from the supplement of paper PMC9170038.

Tested on: MS2 coat protein
Assay: apparent KD of MS2 coat protein; designed switch direction (-1 OFF switch, 1 ON switch): 1; higher = weaker reporter binding
Procedure, shortened: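 Designed RNA switches with common flanks were transcribed on Illumina chips by stalled E. coli RNA polymerase and titrated with SNAP-549-labelled MS2 coat protein, from 0.7 or 1.5 nM doubling to 3 µM, in Tris-HCl pH 7.5 buffer with KCl, MgCl2, BSA, DTT, tRNA and Tween-20. Steps lasted 0.8–1.5 h (lowest) to 10–20 min (highest). Titrations ran without input, with 200 uM small-molecule ligand, or with an oligonucleotide input. Normalised cluster fluorescence was curve-fitted, and apparent KD is the per-design median over clusters.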

[1] = input ligand: microRNA oligo, concentration not stated
[2] = Eterna round: R95, input ligand: microRNA oligo, concentration not stated

## GAGUGGCAGUUAGGAUAUAUAGUGAUAAUCACAAUAGAAGGAACUGACAUGAGGAUCACCCAUGUAGGACUAAUCCAGAGAGAG [Parity 40 - Jieux - Same State NG 1] (Eterna round: R96, puzzle: Same State NG 1)
Input ligand: FMN 200 uM
  apparent KD of MS2 coat protein: 56.9 nM
[1]
  apparent KD of MS2 coat protein: 21.7 nM
Input ligand: none
  apparent KD of MS2 coat protein: 26.8 nM

## GAGUGGUAAAGAGGAUAUGCAUUGUUAUUAAAUGCAGAAGGUUUUAACAUGAGGAUCACCCAUGUAGGACUAUUCCUGUGUUUC [Parity 65 - Jieux - Same State NG 1] (Eterna round: R96, puzzle: Same State NG 1)
[1]
  apparent KD of MS2 coat protein: 11.4 nM

## GAGUGGUAAAGAGGAUAUGCAUUGUUAUUCACUGCAGAAGGUUUUAACAUGAGGAUCACCCAUGUAGGACUAUUCCUGUGUUUC [Parity 64 - Jieux - Same State NG 1] (Eterna round: R96, puzzle: Same State NG 1)
[1]
  apparent KD of MS2 coat protein: 10.3 nM

## GAGUGGUAGAGAGGAUAUGCAUUGUUAUUCACUGUAGAAGGUUUUAACAUGAGGAUCACCCAUGUAGGACUAUUCCUGUGUUUU [Parity 62 - Jieux - Same State NG 1] (Eterna round: R96, puzzle: Same State NG 1)
Input ligand: FMN 200 uM
  apparent KD of MS2 coat protein: 16.3 nM
[1]
  apparent KD of MS2 coat protein: 13.3 nM
Input ligand: none
  apparent KD of MS2 coat protein: 18.4 nM

## GAGUGGUAGGGAGGAUAUGCAUUGUUAUUAAAUGCAGAAGGUUUUAACAUGAGGAUCACCCAUGUAGGACUAUUCCUGUGUUUC [Parity 67 - Jieux - Same State NG 1] (Eterna round: R96, puzzle: Same State NG 1)
Input ligand: FMN 200 uM
  apparent KD of MS2 coat protein: 12.4 nM
[1]
  apparent KD of MS2 coat protein: 12.7 nM
Input ligand: none
  apparent KD of MS2 coat protein: 16.9 nM

## GAGUGGUUGGGAGGAUAUGCAUUGUUAUUAAAUGCAGAAGGUUUUAACAUGAGGAUCACCCAUGUAGGACUAUUCCUGUGUAUC [Parity 69 - Jieux - Same State NG 1] (Eterna round: R96, puzzle: Same State NG 1)
Input ligand: FMN 200 uM
  apparent KD of MS2 coat protein: 13 nM
[1]
  apparent KD of MS2 coat protein: 12.1 nM
Input ligand: none
  apparent KD of MS2 coat protein: 15.8 nM

## GAUCGUUUGAUAGGAUAUCGCUAUACAUGAGGAUCACCCAUGUUUACCACGCUGGUUUUUCAUACCGAGAAGGAUUCUGAUGAU [salish99_SSNG02_r04_009] (Eterna round: R96, puzzle: Same State NG 2)
Input ligand: FMN 200 uM
  apparent KD of MS2 coat protein: 29.9 nM
[1]
  apparent KD of MS2 coat protein: 24.9 nM
Input ligand: none
  apparent KD of MS2 coat protein: 36.9 nM

## GAUUAACAUGAGGAUCACCCAUGUCGUUUAAUGGGAGGAUAUACGUGGACCGUAGUCCGCGUAGAAGGCCUAAUUG [JL-ss1-3.22 janelle mod] (Eterna round: R96, puzzle: Same State 1)
Input ligand: FMN 200 uM
  apparent KD of MS2 coat protein: 31.5 nM
[1]
  apparent KD of MS2 coat protein: 48.3 nM
Input ligand: none
  apparent KD of MS2 coat protein: 77.4 nM

## GAUUAACAUGAGGAUCACCCAUGUCGUUUAAUGGGAGGAUAUACGUGGACCGUAGUCCGCGUAGAAGGCCUAAUUG [JL-ss1-3.22 janelle mod] (puzzle: Same State 1)
[2]
  apparent KD of MS2 coat protein: 76.1 nM

## GAUUCACAUGAGGAUCACCCAUGUCGUUUUAUGGGAGGAUAUACGUGGACCGUAGUCCGCGUAGAAGGCCUAAUUG [JL-ss1-3.24 janelle mod] (puzzle: Same State 1)
[2]
  apparent KD of MS2 coat protein: 92.1 nM

## GCAAUAAGGUGAGGAUAUGCAGAGGAUCACCCUGUAGAAGGCAUCAGGUGAGGAUAUGCAGAGGAUCACCCUGUAGAAGGCAUC [pwkr ssNG DX.15] (Eterna round: R96, puzzle: Same State NG 1)
Input ligand: FMN 200 uM
  apparent KD of MS2 coat protein: 100 nM
[1]
  apparent KD of MS2 coat protein: 123 nM
Input ligand: none
  apparent KD of MS2 coat protein: 175 nM

## GCACAUGAGGAUCACCCAUGUGCGCUUGGUUGUCCAAGCGCACAGGAUAUACCUCCCAAUGGGAGGUAGAAGGGUGAAAAGAAA [Orraveceat] (Eterna round: R96, puzzle: Same State NG 3)
Input ligand: FMN 200 uM
  apparent KD of MS2 coat protein: 12.4 nM
[1]
  apparent KD of MS2 coat protein: 10.9 nM
Input ligand: none
  apparent KD of MS2 coat protein: 16 nM

## GCACCUCGAUGAGGAUAUACAAGCGGAGAUUACAUGAGGAUCACCCAUGUGUGUCGCUUUCGAUGGUAGAAGGCAUACGAGGCA [Eternabot solution 14] (Eterna round: R96, puzzle: Same State NG 2)
Input ligand: FMN 200 uM
  apparent KD of MS2 coat protein: 16.6 nM
[1]
  apparent KD of MS2 coat protein: 52.5 nM
Input ligand: none
  apparent KD of MS2 coat protein: 59.2 nM

## GCAGGACGGUAAAACAUCUCACAUGAGGAUCACCCAUGUCGUGAGGAUAUGGAUCCUAAUUGGAUCCAGAAGGCACGGUCCUGC [Fiskers NG3ss - 29] (Eterna round: R96, puzzle: Same State NG 3)
Input ligand: FMN 200 uM
  apparent KD of MS2 coat protein: 18.4 nM
[1]
  apparent KD of MS2 coat protein: 14 nM
Input ligand: none
  apparent KD of MS2 coat protein: 13.6 nM

## GCCAACUAAUGAGGAUAUGGCACCUUAUUGGUGCCAGAAGGCAUGUCAAUUGACAUGAGGAUCACCCAUGUAUUAUAGUUGGCA [Fiskers NG1ss - 33] (Eterna round: R96, puzzle: Same State NG 1)
Input ligand: FMN 200 uM
  apparent KD of MS2 coat protein: 90.4 nM
[1]
  apparent KD of MS2 coat protein: 178 nM
Input ligand: none
  apparent KD of MS2 coat protein: 405 nM

## GCCACACAUGAGGAUCACCCAUGUAAUUACAUGGGAGGAUAUCAGUGCUCGAAAGAGCACUGAGAAGGCCCGUGGC [SS1 - Omei A v4] (puzzle: Same State 1)
Eterna round: R95, input ligand: FMN 200 uM
  apparent KD of MS2 coat protein: 120 nM
[2]
  apparent KD of MS2 coat protein: 40.1 nM
Eterna round: R95, input ligand: none
  apparent KD of MS2 coat protein: 309 nM

## GCCAGUGCGAAACUCACAUGAGGAUCACCCAUGUGCGUUGAGUAGGAUAUCCGGCUACUCGAGGCGGAGAAGGACUGGGUACUG [Eternabot solution 14] (Eterna round: R96, puzzle: Same State NG 3)
Input ligand: FMN 200 uM
  apparent KD of MS2 coat protein: 17.4 nM
[1]
  apparent KD of MS2 coat protein: 12.3 nM
Input ligand: none
  apparent KD of MS2 coat protein: 17.3 nM

## GCCAUCCAAUGAGGAUAUGGCACCGUUUCGGUGCCAGAAGGCAUGUCAAUUGACAUGAGGAUCACCCAUGUAUUAUGGAUGGCA [JL Fiskers NG1ss - 33 mod 2] (Eterna round: R96, puzzle: Same State NG 1)
Input ligand: FMN 200 uM
  apparent KD of MS2 coat protein: 101 nM
[1]
  apparent KD of MS2 coat protein: 739 nM
Input ligand: none
  apparent KD of MS2 coat protein: 1390 nM

## GCCAUCGAGUGAGGAUAUGGCACCGAAACGGUGCCAGAAGGCAUGUCAAAAGACAUGAGGAUCACCCAUGUAUUAUCGAUGGCA [Mat - Same State NG 1 - JL mod - D88] (Eterna round: R96, puzzle: Same State NG 1)
Input ligand: FMN 200 uM
  apparent KD of MS2 coat protein: 28.5 nM
[1]
  apparent KD of MS2 coat protein: 208 nM
Input ligand: none
  apparent KD of MS2 coat protein: 237 nM

## GCCGCGUUUCACGCCUACAUGAGGAUCACCCAUGUAUGUAGGCAGGAUAUCGUUUGCUUUGCAAACGAGAAGGGCUGUAGUGGC [salish99_SSNG3_R04_007] (Eterna round: R96, puzzle: Same State NG 3)
Input ligand: FMN 200 uM
  apparent KD of MS2 coat protein: 41.7 nM
[1]
  apparent KD of MS2 coat protein: 92.3 nM
Input ligand: none
  apparent KD of MS2 coat protein: 116 nM

## GCCGCGUUUCGCGCCUACAUGAGGAUCACCCAUGUUUGUAGGCAGGAUAUCGUCCGCUUUGCGGGCGAGAAGGGCUGUUGUGGC [salish99_SSNG3_R04_021] (Eterna round: R96, puzzle: Same State NG 3)
Input ligand: FMN 200 uM
  apparent KD of MS2 coat protein: 47 nM
[1]
  apparent KD of MS2 coat protein: 43.5 nM
Input ligand: none
  apparent KD of MS2 coat protein: 54.8 nM

## GCCGCGUUUCGCGCCUACAUGAGGAUCACCCAUGUUUGUAGGCAGGAUAUCGUUUGCUUUGCAACCGAGAAGGGCUGUUGUGGC [salish99_SSNG3_R04_013] (Eterna round: R96, puzzle: Same State NG 3)
Input ligand: FMN 200 uM
  apparent KD of MS2 coat protein: 51.6 nM
[1]
  apparent KD of MS2 coat protein: 38.4 nM
Input ligand: none
  apparent KD of MS2 coat protein: 55.5 nM

## GCCGCGUUUCGCGCCUACAUGAGGAUCACCCAUGUUUGUAGGCAGGAUAUCGUUUGCUUUGCAAUCGAGAAGGGCUGUUGUGGC [salish99_SSNG3_R04_014] (Eterna round: R96, puzzle: Same State NG 3)
Input ligand: FMN 200 uM
  apparent KD of MS2 coat protein: 33 nM
[1]
  apparent KD of MS2 coat protein: 44.6 nM
Input ligand: none
  apparent KD of MS2 coat protein: 56.6 nM

## GCCGCGUUUCGCGCCUACAUGAGGAUCACCCAUGUUUGUAGGCAGGAUAUCGUUUGCUUUGCAGGCGAGAAGGGCUGUUGUGGC [salish99_SSNG3_R04_016] (Eterna round: R96, puzzle: Same State NG 3)
Input ligand: FMN 200 uM
  apparent KD of MS2 coat protein: 43 nM
[1]
  apparent KD of MS2 coat protein: 39.1 nM
Input ligand: none
  apparent KD of MS2 coat protein: 46.5 nM

## GCCGGCUGGUGAGGAUAUGGCACCUUAUUGGUGCCAGAAGGCAUGUCAAUUGACAUGAGGAUCACCCAUGUAUUAUAGUUGGCG [salish99_SSNG1_r04_605] (Eterna round: R96, puzzle: Same State NG 1)
Input ligand: FMN 200 uM
  apparent KD of MS2 coat protein: 414 nM
[1]
  apparent KD of MS2 coat protein: 69.3 nM
Input ligand: none
  apparent KD of MS2 coat protein: 56.1 nM

## GCGAAAUGAUGAAACAUGAGGAUCACCCAUGUAACGAGAGAUGAGGAUAUCGGAAAGGGAGGAGACGAGAAGGCAUGGUCACGC [AK SSNG3-V2-25.1] (Eterna round: R96, puzzle: Same State NG 3)
Input ligand: FMN 200 uM
  apparent KD of MS2 coat protein: 48.4 nM
[1]
  apparent KD of MS2 coat protein: 43 nM
Input ligand: none
  apparent KD of MS2 coat protein: 58.7 nM

## GCGAGCGUACUUGCAACAUGAGGAUCACCCAUGUUAACUGGACAGGAUAUGGUACCGUUUCGGUACCAGAAGGGUUCCUCAAUG [JL SSNG3 3.62] (Eterna round: R96, puzzle: Same State NG 3)
Input ligand: FMN 200 uM
  apparent KD of MS2 coat protein: 295 nM
[1]
  apparent KD of MS2 coat protein: 116 nM
Input ligand: none
  apparent KD of MS2 coat protein: 214 nM
